# Data reported in patent US12365738B2, “Method of treating an interleukin-11-associated or -mediated fibrotic disease or condition by administering an anti-interleukin-11 receptor subunit alpha (IL-11RA) antibody” (Lassen Therapeutics, Inc., priority 2021, dated 2025).
# T1: hIL-11R (Homo sapiens, UniProt Q14626)
# T1 sequence (Q14626 23-422): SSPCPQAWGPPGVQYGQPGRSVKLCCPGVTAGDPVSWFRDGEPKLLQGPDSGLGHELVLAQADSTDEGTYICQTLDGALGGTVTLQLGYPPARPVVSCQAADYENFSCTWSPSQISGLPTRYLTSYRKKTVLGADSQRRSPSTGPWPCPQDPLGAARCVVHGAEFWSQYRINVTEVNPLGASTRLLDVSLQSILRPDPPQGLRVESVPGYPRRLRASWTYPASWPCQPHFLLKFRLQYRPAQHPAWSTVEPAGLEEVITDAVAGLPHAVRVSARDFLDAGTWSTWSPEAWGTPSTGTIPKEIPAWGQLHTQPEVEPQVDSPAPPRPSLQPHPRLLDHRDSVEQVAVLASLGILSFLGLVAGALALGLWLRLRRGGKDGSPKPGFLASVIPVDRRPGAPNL
# B1: mAb21: anti-IL-11Rα antibody, human IgG4 (S228P), kappa; VH SEQ ID NO: 233, VL SEQ ID NO: 234 (antibody, V domains shown)
# VH: EVQLLESGGGLVQPGGSLRLSCAASGFTFSHYSMTWVRQAPGKGLEWVSSIVPYGDLTQYADSVKGRFTISRDNSKNTLYLQMNSLRAEDTAVYYCAKGPGWGSFDLWGRGTLVTVSS
# VL: DIQMTQSPSSLSASVGDRVTITCQASQDINNYLNWYQQKPGKAPKLLIYDASNLQTGVPSRFSGSGSGTDFTFTISSLQPEDIATYYCQQHESQSPTFGPGTKVDIK
# modifications: IgG4 S228P kappa constant regions; mAb21 VH Chain; mAb21 VL Chain
# B2: mAb20: anti-IL-11Rα antibody, human IgG4 (S228P), kappa; VH SEQ ID NO: 231, VL SEQ ID NO: 232 (antibody, V domains shown)
# VH: EVQLLESGGGLVQPGGSLRLSCAASGFTFSGYSMTWVRQAPGKGLEWVSSIVPYGDLTQYADSVKGRFTISRDNSKNTLYLQMNSLRAEDTAVYYCAKGPGWGSFDLWGRGTLVTVSS
# VL: DIQMTQSPSSLSASVGDRVTITCQASQDINNYLNWYQQKPGKAPKLLIYDASNLQTGVPSRFSGSGSGTDFTFTISSLQPEDIATYYCQQHESQSPTFGPGTKVDIK
# modifications: IgG4 S228P kappa constant regions; mAb20 VH Chain; mAb20 VL Chain
# B3: mAb25: anti-IL-11Rα antibody, human IgG4 (S228P), kappa; VH SEQ ID NO: 241, VL SEQ ID NO: 242 (antibody, V domains shown)
# VH: EVQLLESGGGLVQPGGSLRLSCAASGFTFSMYSMTWVRQAPGKGLEWVSSIVPYGDLTQYADSVKGRFTISRDNSKNTLYLQMNSLRAEDTAVYYCAKGPGWGSFDLWGRGTLVTVSS
# VL: DIQMTQSPSSLSASVGDRVTITCQASQDINNYLNWYQQKPGKAPKLLIYDASNLQTGVPSRFSGSGSGTDFTFTISSLQPEDIATYYCQQHESQSPTFGPGTKVDIK
# modifications: IgG4 S228P kappa constant regions; mAb25 VH Chain; mAb25 VL Chain
# B4: mAb28: anti-IL-11Rα antibody, human IgG4 (S228P), kappa; VH SEQ ID NO: 247, VL SEQ ID NO: 248 (antibody, V domains shown)
# VH: EVQLLESGGGLVQPGGSLRLSCAASGFTFSRYSMTWVRQAPGKGLEWVSSIVPYGDLTQYADSVKGRFTISRDNSKNTLYLQMNSLRAEDTAVYYCAKGPGWGSFDLWGRGTLVTVSS
# VL: DIQMTQSPSSLSASVGDRVTITCQASQDINNYLNWYQQKPGKAPKLLIYDASNLQTGVPSRFSGSGSGTDFTFTISSLQPEDIATYYCQQHESQSPTFGPGTKVDIK
# modifications: IgG4 S228P kappa constant regions; mAb28 VH Chain; mAb28 VL Chain
# B5: mAb22: anti-IL-11Rα antibody, human IgG4 (S228P), kappa; VH SEQ ID NO: 235, VL SEQ ID NO: 236 (antibody, V domains shown)
# VH: EVQLLESGGGLVQPGGSLRLSCAASGFTFSIYSMTWVRQAPGKGLEWVSSIVPYGDLTQYADSVKGRFTISRDNSKNTLYLQMNSLRAEDTAVYYCAKGPGWGSFDLWGRGTLVTVSS
# VL: DIQMTQSPSSLSASVGDRVTITCQASQDINNYLNWYQQKPGKAPKLLIYDASNLQTGVPSRFSGSGSGTDFTFTISSLQPEDIATYYCQQHESQSPTFGPGTKVDIK
# modifications: IgG4 S228P kappa constant regions; mAb22 VH Chain; mAb22 VL Chain
# B6: mAb29: anti-IL-11Rα antibody, human IgG4 (S228P), kappa; VH SEQ ID NO: 249, VL SEQ ID NO: 250 (antibody, V domains shown)
# VH: EVQLLESGGGLVQPGGSLRLSCAASGFTFSSYSMTWVRQAPGKGLEWVSSIVPYGDLTQYADSVKGRFTISRDNSKNTLYLQMNSLRAEDTAVYYCAKGPGWGSFDLWGRGTLVTVSS
# VL: DIQMTQSPSSLSASVGDRVTITCQASQDINNYLNWYQQKPGKAPKLLIYDASNLQTGVPSRFSGSGSGTDFTFTISSLQPEDIATYYCQQHESQSPTFGPGTKVDIK
# modifications: IgG4 S228P kappa constant regions; mAb29 VH Chain; mAb29 VL Chain
# B7: mAb26: anti-IL-11Rα antibody, human IgG4 (S228P), kappa; VH SEQ ID NO: 243, VL SEQ ID NO: 244 (antibody, V domains shown)
# VH: EVQLLESGGGLVQPGGSLRLSCAASGFTFSNYSMTWVRQAPGKGLEWVSSIVPYGDLTQYADSVKGRFTISRDNSKNTLYLQMNSLRAEDTAVYYCAKGPGWGSFDLWGRGTLVTVSS
# VL: DIQMTQSPSSLSASVGDRVTITCQASQDINNYLNWYQQKPGKAPKLLIYDASNLQTGVPSRFSGSGSGTDFTFTISSLQPEDIATYYCQQHESQSPTFGPGTKVDIK
# modifications: IgG4 S228P kappa constant regions; mAb23 VH Chain; mAb26 VL Chaim
# B8: mAb27: anti-IL-11Rα antibody, human IgG4 (S228P), kappa; VH SEQ ID NO: 245, VL SEQ ID NO: 246 (antibody, V domains shown)
# VH: EVQLLESGGGLVQPGGSLRLSCAASGFTFSPYSMTWVRQAPGKGLEWVSSIVPYGDLTQYADSVKGRFTISRDNSKNTLYLQMNSLRAEDTAVYYCAKGPGWGSFDLWGRGTLVTVSS
# VL: DIQMTQSPSSLSASVGDRVTITCQASQDINNYLNWYQQKPGKAPKLLIYDASNLQTGVPSRFSGSGSGTDFTFTISSLQPEDIATYYCQQHESQSPTFGPGTKVDIK
# modifications: IgG4 S228P kappa constant regions; mAb27 VH Chain; mAb27 VL Chain
# B9: mAb31: anti-IL-11Rα antibody, human IgG4 (S228P), kappa; VH SEQ ID NO: 253, VL SEQ ID NO: 254 (antibody, V domains shown)
# VH: EVQLLESGGGLVQPGGSLRLSCAASGFTFSVYSMTWVRQAPGKGLEWVSSIVPYGDLTQYADSVKGRFTISRDNSKNTLYLQMNSLRAEDTAVYYCAKGPGWGSFDLWGRGTLVTVSS
# VL: DIQMTQSPSSLSASVGDRVTITCQASQDINNYLNWYQQKPGKAPKLLIYDASNLQTGVPSRFSGSGSGTDFTFTISSLQPEDIATYYCQQHESQSPTFGPGTKVDIK
# modifications: IgG4 S228P kappa constant regions; mAb31 VH Chain; mAb31 VL Chain
# B10: mAb24: anti-IL-11Rα antibody, human IgG4 (S228P), kappa; VH SEQ ID NO: 239, VL SEQ ID NO: 240 (antibody, V domains shown)
# VH: EVQLLESGGGLVQPGGSLRLSCAASGFTFSLYSMTWVRQAPGKGLEWVSSIVPYGDLTQYADSVKGRFTISRDNSKNTLYLQMNSLRAEDTAVYYCAKGPGWGSFDLWGRGTLVTVSS
# VL: DIQMTQSPSSLSASVGDRVTITCQASQDINNYLNWYQQKPGKAPKLLIYDASNLQTGVPSRFSGSGSGTDFTFTISSLQPEDIATYYCQQHESQSPTFGPGTKVDIK
# modifications: IgG4 S228P kappa constant regions; mAb24 VH Chain; mAb24 VL Chain
# B11: mAb30: anti-IL-11Rα antibody, human IgG4 (S228P), kappa; VH SEQ ID NO: 251, VL SEQ ID NO: 252 (antibody, V domains shown)
# VH: EVQLLESGGGLVQPGGSLRLSCAASGFTFSTYSMTWVRQAPGKGLEWVSSIVPYGDLTQYADSVKGRFTISRDNSKNTLYLQMNSLRAEDTAVYYCAKGPGWGSFDLWGRGTLVTVSS
# VL: DIQMTQSPSSLSASVGDRVTITCQASQDINNYLNWYQQKPGKAPKLLIYDASNLQTGVPSRFSGSGSGTDFTFTISSLQPEDIATYYCQQHESQSPTFGPGTKVDIK
# modifications: IgG4 S228P kappa constant regions; mAb30 VH Chain; mAb30 VL Chain
# B12: mAb23: anti-IL-11Rα antibody, human IgG4 (S228P), kappa; VH SEQ ID NO: 237, VL SEQ ID NO: 238 (antibody, V domains shown)
# VH: EVQLLESGGGLVQPGGSLRLSCAASGFTFSKYSMTWVRQAPGKGLEWVSSIVPYGDLTQYADSVKGRFTISRDNSKNTLYLQMNSLRAEDTAVYYCAKGPGWGSFDLWGRGTLVTVSS
# VL: DIQMTQSPSSLSASVGDRVTITCQASQDINNYLNWYQQKPGKAPKLLIYDASNLQTGVPSRFSGSGSGTDFTFTISSLQPEDIATYYCQQHESQSPTFGPGTKVDIK
# modifications: IgG4 S228P kappa constant regions; mAb23 VH Chain; mAb23 VL Chain
# Molecular target: T1, hIL-11R
# Assay: Alternate biolayer interferometry assay (AHC biosensors) ranking mAbs 16-32 against mAb5
# Assay type: binding
# Details: for ka / kd: AHC biosensors; for qualitative assessment: compared to mAb5 (comparator)
# Excerpt: A further series of antibodies were designed in which the residue at Kabat position 31 of the heavy chain was varied (mAbs 16-32). In this case an alternate biolayer interferometry assay was used to initially rank the antibodies compared to mAb5, the closest relative in sequence to mAbs 16-32. MAbs were loaded onto anti-human constant domain (AHC) biosensors (FortéBio) in 10×kinetics buffer consisting of PBS, 0.1% BSA, 0.02% polysorbate 20 (TWEEN™) for 120 s to achieve a spectral shift value of 0.8 to 1.2 nm. Association was carried out in the presence of 2-fold dilution series of hIL-11R and was allowed to proceed for 120 s. Dilution series started 10 nM. The dissociation in 10×kinetics buffer for 1200 s. Binding kinetic measurements were taken on an Octet RED96e instrument.
ka [M⁻¹ s⁻¹],kd,potency compared to mAb5 by more detailed kinetic measurements (in words),qualitative assessment,Molecule
750000,off-scale,further improved potency,improved/,B1
–,–,–,similar,B2
–,–,–,similar,B3
–,–,–,similar,B4
–,–,–,similar,B5
610000,1.8e-05 s⁻¹,further improved potency,improved/,B6
–,–,–,decreased,B7
–,–,–,decreased,B8
690000,off-scale,further improved potency,improved/,B9
–,–,–,similar,B10
–,–,–,decreased,B11
720000,off-scale,further improved potency,improved/,B12
